Experimental data published in patent US20190083615A1 (Merck Sharp & Dohme, published 2019).
Several values for one entry are separate records, joined by “and”; a condition that tells them apart may be missing. Identical values can stand only once.

T1: Human LAG3-His: [VEGF leader]-LAG3_H-[His9G] (human, UniProt P18627 23-450)
T1 construct: also called human LAG3-His tagged recombinant protein; hLAG3-His
T1 sequence: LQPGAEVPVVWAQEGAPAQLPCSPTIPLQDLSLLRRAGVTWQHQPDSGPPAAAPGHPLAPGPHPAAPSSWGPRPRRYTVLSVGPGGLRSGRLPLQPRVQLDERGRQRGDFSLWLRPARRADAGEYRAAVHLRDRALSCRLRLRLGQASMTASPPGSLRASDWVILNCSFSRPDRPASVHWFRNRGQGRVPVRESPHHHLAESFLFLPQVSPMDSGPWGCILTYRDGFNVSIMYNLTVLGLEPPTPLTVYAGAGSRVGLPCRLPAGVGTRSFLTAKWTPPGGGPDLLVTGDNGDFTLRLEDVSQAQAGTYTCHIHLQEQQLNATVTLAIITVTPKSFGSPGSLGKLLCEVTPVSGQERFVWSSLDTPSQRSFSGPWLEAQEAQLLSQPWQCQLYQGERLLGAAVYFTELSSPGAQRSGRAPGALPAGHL

T2: human LAG3-huFc recombinant protein (human, UniProt P18627 23-450, limits assumed, biotinylated in the runs with humanized and chimeric antibodies (Example 11))
T2 construct: also called human LAG3-Fc; huLAG3-huFc; not shown: human Fc
T2 sequence: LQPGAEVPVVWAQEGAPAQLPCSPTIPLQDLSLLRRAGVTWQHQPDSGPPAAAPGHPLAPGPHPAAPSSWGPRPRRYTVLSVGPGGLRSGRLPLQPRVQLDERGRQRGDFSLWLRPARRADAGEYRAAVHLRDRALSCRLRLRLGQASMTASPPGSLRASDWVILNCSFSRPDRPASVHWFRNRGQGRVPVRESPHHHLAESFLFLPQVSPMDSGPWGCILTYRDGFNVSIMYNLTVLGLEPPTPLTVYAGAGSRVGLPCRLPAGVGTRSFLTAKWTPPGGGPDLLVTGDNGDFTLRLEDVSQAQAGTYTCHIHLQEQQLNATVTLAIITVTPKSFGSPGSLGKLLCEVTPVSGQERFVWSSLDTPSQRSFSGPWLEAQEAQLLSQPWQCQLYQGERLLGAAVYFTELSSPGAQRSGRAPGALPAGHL

T3: human LAG3 (Lymphocyte Activation Gene-3) expressed on cells (human, UniProt P18627 23-525)
T3 sequence: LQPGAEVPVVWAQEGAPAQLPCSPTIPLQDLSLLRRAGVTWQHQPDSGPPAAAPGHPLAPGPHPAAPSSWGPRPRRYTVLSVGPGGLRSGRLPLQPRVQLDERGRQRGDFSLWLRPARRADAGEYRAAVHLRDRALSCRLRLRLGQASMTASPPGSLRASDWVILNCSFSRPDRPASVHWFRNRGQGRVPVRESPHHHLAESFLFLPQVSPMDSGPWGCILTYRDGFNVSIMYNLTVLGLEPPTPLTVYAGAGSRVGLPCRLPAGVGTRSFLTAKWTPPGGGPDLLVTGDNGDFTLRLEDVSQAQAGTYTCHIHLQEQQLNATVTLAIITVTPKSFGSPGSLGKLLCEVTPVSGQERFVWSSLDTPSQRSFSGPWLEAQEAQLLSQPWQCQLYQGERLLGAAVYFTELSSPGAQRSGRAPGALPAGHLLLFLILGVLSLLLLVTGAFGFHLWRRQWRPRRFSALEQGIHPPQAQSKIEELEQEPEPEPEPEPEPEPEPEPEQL


Experiments:
[1] = biological target: T1, Human LAG3-His: [VEGF …; experiment: SPR (Biacore T200), antibody captured on goat anti-mouse Fc, human LAG3-His as analyte, 1:1 Langmuir fit
Description: Mouse anti-human LAG3 clones listed above were injected over the immobilized goat anti-mouse surfaces at 1 ug/mL for a capture level of 40 RU. HBS-EP+ buffer (BR-1006-69) was used as the running buffer with a flow rate of 30 μL/min.
Varying concentrations of human LAG3-His protein ranging from 0.15 nM to 18.8 nM, at a flow rate of 40 μL/min were injected over the antibody surfaces.
Background subtraction binding sensorgrams were used for analyzing the rate constant of association (kₐ) and dissociation (kd), and the equilibrium dissociation constant KD. The resulting data sets were fitted with a 1:1 Langmuir Binding Model using the Biacore T200 evaluation software (version 2.0).

[2] = biological target: T2, human LAG3-huFc recombinant protein; experiment: flow cytometry, blockade of human LAG3-huFc binding to MHC class II on Daudi cells
Description: (§1) Mouse anti-human LAG3 clones were tested for their ability to block hLAG3 interaction with human MHC Class II. Daudi cells (ATCC #CCL-213) were used as a cell line positive for human MHC class II expression. Daudi cells were blocked with 10 ug/ml of goat IgG in HBSS and 2% BCS on ice for 30 minutes and 0.5×10⁶ cells/sample were aliquoted into a 96-well V-bottom plate and blocking buffer removed. […] Cells were pelleted by centrifugation at 1200 rpm and washed twice with HBSS/2% BCS. […] Cells were washed twice as described above, resuspended in HBSS/2% BCS and read on the FACSCalibur.

[3] = biological target: T3, human LAG3 (Lymphocyte Activation …); experiment: cell-based or functional assay
[4] = biological target: T2, human LAG3-huFc recombinant protein; experiment: flow cytometry, blockade of human LAG3-huFc (2 ug/ml) binding to MHC class II on Daudi cells
Description: as §1

[5] = biological target: T2, human LAG3-huFc recombinant protein; experiment: flow cytometry, blockade of biotinylated human LAG3-huFc binding to MHC class II on Daudi cells, streptavidin-PE
Description: as §1, with “anti-human LAG3 and humanized anti-LAG3 clones were” for “anti-human LAG3 clones were”

[6] = biological target: T3, human LAG3 (Lymphocyte Activation …); experiment: cell based KinExA, BaF/3 cells transfected with human LAG3 (n=2)
Description: The affinities of the LAG3 antibodies for LAG3 were determined using a cell based Kinetic Exclusion Assay (KinExA). Cell based KinExA can be used to measure the affinity of a molecule for a binding partner on a cell surface (Rathanaswami et al. Analylitical Biochemistry 373(1): 52-60 (2008); Xie et al. J. Immunol. Methods 304 (1-2): 1-14 (2005)). In this case, BaF/3 cells were stably transfected with human and cynomolgus monkey LAG3 proteins. Transfected cells or the parental BaF/3 control cell line were grown to a density of 1.7×10⁶ to 3.2×10⁶ cells per ml at 37° C., 120 RPM, 5% CO₂, in 1X RPMI 1640 media with 10% FBS, 10 ng/ml IL-3, 5 μg/ml puromycin. Cells were concentrated, mixed with 15 pM or 150 pM antibody in cell culture media and incubated 24 to 48 hours at room temperature while rotating at 20 to 30 RPM. Cells were present at a top concentration of 2×10⁷ cells per ml (parental BaF/3 or cynomolgus LAG3 transfectants) or 1×10⁷ cells per ml (human LAG3 transfectants) and diluted in a 2-fold, 18 member series. The cells were pelleted and free antibody in the supernatant was measured using a KinExA 3200 instrument (Sapidyne, Id., USA). […] Antibody on the beads was labeled with 1.5 μg/ml Alexa Fluor® 647 conjugated goat anti-human (Fab′)₂ (Jackson ImmunoResearch Laboratories), washed and the fluorescent signal was read all using the KinExA™ 3200. The data from the 15 pM and 150 pM concentrations of each antibody were fit simultaneously using KinExA™ Pro n-Curve Analysis software version 4.0.11 (Sapidyne).

[7] = biological target: T3, human LAG3 (Lymphocyte Activation …); experiment: flow cytometry, PHA-activated human CD4+ T cells (3 donors)
Description: (§2) Binding of LAG-3 mAb clones to primary T-cells was assessed using human and cynomolgous monkey (cyno) peripheral blood mononuclear cells (PBMC). Human blood was obtained from the local donors; cyno blood was obtained from Bioreclamation. PBMC were isolated from the whole blood using Ficoll-Paque Plus (GE Healthcare, Cat# 17-1440-03) density gradient centrifugation at 524×g for 40 minutes. PBMC were collected from the medium:plasma interface and washed 2 times with phosphate buffered saline (PBS). The residual red blood cells were lysed using ammonium-chloride-potassium red blood cell lysing solution (ACK, GIBCO, cat# A10492-010). Cynomolgus monkey or human PBMC (3×10⁶/ml) were stimulated with 4 μg/ml PHA (Sigma, L2769) for 48 h and 20 h, respectively. For flow cytometric analysis, 1×10⁶ PHA-activated PBMCs were used per staining in 50 μl FACS staining buffer (BD, cat# 554657). LAG-3 mAb clones or correspondent isotype controls were incubated with human or cyno PBMS followed by detection using goat anti-mouse IgG-PE (BD 550589). […] Sample acquisition was performed on an LSR II flow cytometer and the data were analyzed using FlowJo software version 10.0.6 (Tree Star, Inc.).
(§3) The data represent 3 human and 3 cynomolgus donors after stimulation with 4 ug/ml of PHA for 40 hours prior to staining.

[8] = biological target: T3, human LAG3 (Lymphocyte Activation …); experiment: flow cytometry, PHA-activated human CD8+ T cells (3 donors)
Description: as §2, §3

| Kd [1] [nM] | koff [1] [s⁻¹] | kon [1] [M⁻¹ s⁻¹] | IC50 [2] [nM] | EC50 for IL-2 rescue, hLAG3-3A9 T cell system [3] | IC50 [4] [nM] | IC50 [5] [nM] | Kd [6] [nM] | EC50 [7] [nM] | EC50 [8] [nM] | Binder |
| --- | --- | --- | --- | --- | --- | --- | --- | --- | --- | --- |
| 0.00277 | 3.84e-05 | 1.39e+07 | 2.1 | 1.06 nM and 1.65 nM | 2.1 | – | – | – | – | mouse anti-human LAG3 antibody LB145.22D2.E1.1D1 (antibody, mouse IgG2a, V domains shown, also called Lag3 clone 22D2; LB145.22D2.E1.D1) VH: EVLLLQSGPELVKPGTSVKIPCKASGYTFTDYNVDWVKQRHGKGLEWIGDINPNNGGTIYSQKFKGKATLTVDKSSSTAFMELRSLTSEDTAVYFCARNYRWFGAMDHWGQGTSVTVSS VL: DIVLTQSPASLAVSPGQRATISCKASQSLDYEGDSDMNWYQQKPGQPPRLLISGASNLESGIPARFSGSGSGTDFTVNIHPVEEEDAATYYCQQSTEDPRTFGGGTKLEIK |
| – | – | – | – | – | – | 2.5 | 0.003 | – | – | 22D2 chimera: chimeric antibody [LAG3_H] mAb (LB145.22D2.E1.D1 (VH0/VL0) Geneart) IgG4 S228P/kappa (PX) (antibody, V domains shown, It is described as the parental LB145.22D2.E1.D1 VH0/VL0 on human IgG4 with the hinge-stabilizing S228P mutation and kappa; also called Chimeric 22D2; chimeric 22D2) VH: EVLLLQSGPELVKPGTSVKIPCKASGYTFTDYNVDWVKQRHGKGLEWIGDINPNNGGTIYSQKFKGKATLTVDKSSSTAFMELRSLTSEDTAVYFCARNYRWFGAMDHWGQGTSVTVSS VL: DIVLTQSPASLAVSPGQRATISCKASQSLDYEGDSDMNWYQQKPGQPPRLLISGASNLESGIPARFSGSGSGTDFTVNIHPVEEEDAATYYCQQSTEDPRTFGGGTKLEIK |
| – | – | – | – | – | – | 2.6 | 0.006 | – | – | Ab5: humanized light chain 45AGX Humanized x[LAG3_H] mAb (LB145.22D2.E1.D1 (VL3)) Kappa (PX) and humanized heavy chain 57AHH Humanized x[LAG3_H] mAb … (antibody, Humanized 22D2, IgG4 S228P/kappa; also called Hu22D2 VH6/VL3 (Ab 5); hu22D2 VH6/VL3) heavy: not shown light: DIVMTQTPLSLSVTPGQPASISCKASQSLDYEGDSDMNWYLQKPGQPPQLLIYGASNLESGVPDRFSGSGSGTDFTLKISRVEAEDVGVYYCQQSTEDPRTFGGGTKVEIKRTVAAPSVFIFPPSDEQLKSGTASVVCLLNNFYPREAKVQWKVDNALQSGNSQESVTEQDSKDSTYSLSSTLTLSKADYEKHKVYACEVTHQGLSSPVTKSFNRGEC |
| – | – | – | – | – | – | 2.1 | 0.01 | 0.057 | 0.049 | Ab7: humanized light chain 45AGX Humanized x[LAG3_H] mAb (LB145.22D2.E1.D1 (VL3)) Kappa (PX) and humanized heavy chain 21AHG Humanized x[LAG3_H] mAb … (antibody, Humanized 22D2 N55S, IgG4 S228P/kappa; also called Hu22D2 VH6/VL3 N55S (Ab 7); hu22D2 VH6/VL3 N55S) heavy: not shown light: DIVMTQTPLSLSVTPGQPASISCKASQSLDYEGDSDMNWYLQKPGQPPQLLIYGASNLESGVPDRFSGSGSGTDFTLKISRVEAEDVGVYYCQQSTEDPRTFGGGTKVEIKRTVAAPSVFIFPPSDEQLKSGTASVVCLLNNFYPREAKVQWKVDNALQSGNSQESVTEQDSKDSTYSLSSTLTLSKADYEKHKVYACEVTHQGLSSPVTKSFNRGEC |
